The results in this text go back to the DeepSol protein solubility set.

The nature of the data set: soluble on expression in E. coli; label from the status in PepcDB or PDB records.
Turning to “MVLGKPQTDPTLEWFLSHCHIHKYPSKSTLIHQGEKAETLYYIVKGSVAVLIKDEEGKEMILSYLNQGDFIGELGLFEEGQERSAWVRAKTACEVAEISYKKFRQLIQVNPDILMRLSAQMARRLQVTSEKVGNLAFLLVTGRIAQTLLNLAKQPDAMTHPDGMQIKITRQEIGQIVGCSRETVGRILKMLEDQNLISAHGKTIVVYGTR”, the “soluble on expression in E. coli” value was “soluble”.

In the case of “HPISLMRAPVNEIMVGLGYYEVMPFTLTSEKVNFENMCREKTDDVTYVLHPISEDQTMLRTTVLPNLLEILALNQHRELPQKIFEFGEVVSNETTGQHVAAVSIHPQANFTEVYEVVDAFMREMMLSYEVKESKDPAFLEGRRADVYVNGKKLGVFGELQPEVISKFSLGYAVVGFELDLNDLIGKN”, the “soluble on expression in E. coli” value was “not soluble”.

For the sequence “TPLLKTEFFPQSDNGYIQIQAEYPVGTGVNLPRAFALRMIDSWEKEIPEIDRTSFSVGQAEASSMFAAMQDNGTNIITFHIGLTGRNERKRSMNEVADQIRTMLDDYPEIHSYKVTPGGSGGGMGGQPTVNLDIYGYDFNKTGDLAERFSRLMKEDARCAQATISRKDYVPEYQFVFDRTKLAENGLNSTTAAMFLRNRVNGRVASTYREEGDEYDIRVRLAPEFRRSLRDLENILIYTPQGKGVRLGELGKIEELYTPPTIERKDRQRVVIVASTAVKGAALSDLVEVAKEKIAQLEIPDGIDYKISGTYEDQQKTFAD”, the “soluble on expression in E. coli” value was “not soluble”.

With “MSLKIADIQVRTEHFPLTRPYRIAFRSIEEIDNLIVEIRTADGLLGLGAASPERHVTGETLEACHAALDHDRLGWLMGRDIRTLPRLCRELAERLPAAPAARAALDMALHDLVAQCLGLPLVEILGRAHDSLPTSVTIGIKPVEETLAEAREHLALGFRVLKVKLCGDEEQDFERLRRLHETLAGRAVVRVDPNQSYDRDGLLRLDRLVQELGIEFIEQPFPAGRTDWLRALPKAIRRRIAADESLLGPADAFALAAPPAACGIFNIKLMKCGGLAPARRIATIAETAGIDLMWGCMDESRISIAAALHAALACPATRYLDLDGSFDLARDVAEGGFILEDGRLRVTERPGLGLVYPDEGHHHHHH”, the “soluble on expression in E. coli” value was “soluble”.

Turning to “MKYTITVMSGKGGVGKSTVAVNLAVSLARKGLKVGLIDADINGPDDPKLLGVSDLKLYADEEGIIPAETRYGVRVVSMGFLIPTEDTPIIWRGSLMHKAIQQFLEDVNWKDTDVVVLDMPPGTGDVALSVAQLIPESNGVVIVVTPQDVALLDAKKAINFAKQLKLPVLGIIENMSGFVCPHCGNVTYIFKNGGGEKSAKEYNLPFLGKIPLIPEIAENGDNGIPAVVINDKIREIFDSITDQILKEAQIENIKQLEHHHHHH”, the “soluble on expression in E. coli” value is reported as “not soluble”.

“LTNRGLKQVGWYLPAAQKTKKTAIVVHGFTNDKEDMKPYAMLFHDLGYNVLMPDNEAHGESEGNLIGYGWNDRLNVMAWTDQLIKENPESQITLFGLSMGAATVMMASGERLPAQVTSLIEDCGYASVWDELKFQAKAMYNLPAFPLLYEVSALSKIRAGFSYGEASSVKQLAKNKRPTLFIHGDKDDFVPTKMVYDNYKATKGPKEILIVKGAKHAKSFETNPEQYQKKIAAFLKKVEK”: the “soluble on expression in E. coli” value is given as “not soluble”.

With “MSLRYTKEQCTAAEAQRLAQEIAFGPVVFQVSRLMLKFGIFQLLSGKREGYTLQEISGRTGLTRYAAQVLLEASLTIGTILLEEDRYVLAKAGWFLLNDKMARVNMEFNHDVNYQGLFHLEEALLNGRPEGLKVFGEWPTIYEGLSQLPEQVQKSWFGFDHFYSDQSFGKALEIVFSHHPKRLLDIGGNTGKWATQCVQYNKEVEVTIVDLPQQLEMMRKQTAGLSGSERIHGHGANLLDRDVPFPTGFDAVWMSQFLDCFSEEEVISILTRVAQSIGKDSKVYIMETLWDRQRYETASYCLTQISLYFTAMANGNSKMFHSDDLIRCIENAGLEVEEIQDNIGLGHSILQCRLKEGHHHHHH”, the “soluble on expression in E. coli” value was “soluble”.

As for “IATGIPTGFKDLDDLTNGLRGGQMIIVAARPGVGKSTIALDFMRSASIKNNMASVIFSLEMSKSEIVMRLLSAETEIRLADMRGGKMDETAWEKMVQKLDKVAQAPLFIDDSANLTMMEIRSKARKLKQKHDLKMIVVDYLQLMSSGKRVESRQQEVSEFSRQLKLLAKELDVPLIAISQLNRGPESRTDKRPQLADL”, the “soluble on expression in E. coli” value is listed as “not soluble”.

For the sequence “MAHHHHHHMKEGDFEGAEERFIKAIEEIEKFPEGKVDPKLVEQMRELLEDAREMKDGRFKEIQEFIQEQFAVNETERLPTAHEFYGDVDEQQHPFVSRLPNDGECSALSMPQSNTNPVQWSEHSNSMSLSLFPSQVNGRSSEASNSQPVQHVVARRKPKPLQKQKALEVESSGNVSTGSDMKRFRAES”, the “soluble on expression in E. coli” value is listed as “soluble”.

On to “KDFTWNTGVTYSMNKNKILTLADNAINPITREKFSISSLNMGGLGSTRFILKEGGSMGDIYSLMDLKRDANGAVYIDENNSVVTESLEANNYIKLGSVLPKGNLAWRNNFSWKNINVAFLVSARLGGVVFSRTQAVLDNFGVSEASAAARDKGYVSVNGNDRVNPEGWYSVVAGGTAVPQYYIYSATNIRLQEASIGYTIPRKWLGNVCDIKVSLIGRNLWMIYNKAPFDPESVASTDNFYQGIDYFMMPSLRNIGFNLSFKF”, for which the “soluble on expression in E. coli” value is recorded as “not soluble”.

Consider “MGSDKIHHHHHHMKEVLEVLPKTMKQLVENCKQYDALEEIRVRIGRPLECIAHGEVFFYDYIVTADDAIYLLNKLSHFSIYTMEEELKRGYVTLRGGHRIGLAGKVITEKSTVKMIRDVSSFNIRIARQKIGIAEPLLPYLYESRWLNTMVIGPPQTGKTTLLRDVARCMSQGVSTSKIPSCKVGIVDERSEIAGCVKGIPQYDFGTRVDVLDACPKAEGMMMMIRSMSPDILIVDEIGRKEDSEAIMEAVHAGVQLFISAHGFSYDDVVKRPSLKAVLELGIFDRFVELSKARGPGTVMQVKDKYGKPVLPHRKAESVC”, for which the “soluble on expression in E. coli” value is recorded as “not soluble”.

For “MGSDKIHHHHHHMNRLRYSVNLSYEILDPTGDFLLIVEAAKTARQSVVSERLALTPPAHAARYTDPLGNRLLRIRANKGPLAIRYEAVVDIDHRLDDGMSLTEVPVAELPFDVLSYLAPSRYCESDRMMEFAMREFGSMRPGYSRVYAIREWVRNHVRFLSRSTNERTSAIDTIVERTGVCRDFSHLMIAICRALSIPARMSSSVDYGADPALGAPDFHAVVEVFLSGGWYLLDPSGVSIPTGLLRIGTGRDAADIPFAAIFGKVESKRPFIEIQPIADPVAGIGLPLATTSAISTW”, the “soluble on expression in E. coli” value was “not soluble”.

With “LWGIFVEQADGHYRVRLRSKIHPINEIAKEHDGGGHPLASGANSYSLEENEIIY”, the “soluble on expression in E. coli” value is given as “soluble”.

On to “SLKEFELKGINHLALVCRDFQETIDFYTITLGLKLIKNIDLPSGGKHFFIDIGNNNTLAFFWSTKAPESVPGISSVRPEAFLTGDIITAHGSMNHVAFHVPLEKLEEYKEKLVSKGVQTTPVLHHTDVPMSSFYFFDPNGILLEFAANLQSLDTLPAELKEKEAIFLKEG”, for which the “soluble on expression in E. coli” value is given as “soluble”.

Regarding “SATQIPSTISILATSDIHGNVLNYDYATGKAPTNTQGLAKVSSYVNSVRASKPNVMLIDDGDTIQGTPLSYYYDKIDTTSEYPLMKIMGAMKYDTWTLGNHEFNYGLPTLNRVISDARKENINVLSANTYNSDNTNFVNPYYIKTFNINGKTVNVGILGLTTKCIPDWEDPSHYAGLHFNDLVDEAKLWVPRMKAAGANVVIVAAHSGEEGAADTIPENQIKAIATNVSGIDAIVAGHAHVTVNDTSLKNPNGKTVPVVEPNKWGTFVSQIDITLDNSGNASTINTQNVKMTDSIPEDPNIVNIIQPYQNKTLDYIST”, the “soluble on expression in E. coli” value is on record as “not soluble”.

As to “MADKKLDTQLVNAGRSKKYTLGAVNSVIQRASSLVFDSVEAKKHATRNRANGELFYGRRGTLTHFSLQQAMCELEGGAGCVLFPCGAAAVANSILAFIEQGDHVLMTNTAYEPSQDFCSKILSKLGVTTSWFDPLIGADIVKHLQPNTKIVFLESPGSITMEVHDVPAIVAAVRSVVPDAIIMIDNTWAAGVLFKALDFGIDVSIQAATKYLVGHSDAMIGTAVCNARCWEQLRENAYLMGQMVDADTAYITSRGLRTLGVRLRQHHESSLKVAEWLAEHPQVARVNHPALPGSKGHEFWKRDFTGSSGLFSFVLKKKLNNEELANYLDNFSLFSMAYSWGGYESLILANQPEHIAAIRPQGEIDFSGTLIRLHIGLEDVDDLIADLDAGFARIV”, the “soluble on expression in E. coli” value is “soluble”.

“MLSGVGAPVGKQMLAGTEVAAMQINKAGGLLGREVELVIRDDKYNSSESVAVARELAGDGINLLLGGSQTVTALGLAPLAPELNMAVMIVAAAGMPVTHELFNPNIFRATANNYTQYSSLGRVLIEQNPDVRTWVSLAPDGDFGRDSALFFGKAVEKYAPGEKPTVLDTIYTQATATDFRTQINQLMSSDAEGLYIGIAASAQISFFQQARSVGLYDKFKAIGEVGNGDITGKAMGRNTHPNLWSVCHWIYNAEPFASNPVSKQLYEDYVTLKGDEMPSAQVAAGHRAAMAIFEGIRAAGSTETEAVLAAIEDVEFETVGGPVSFRKEDHQLVNTNYYSQMGPSREEPFFAFNKVVSIDAAEMIEPATPGKAFDISELPQLEHHHHHH”: the “soluble on expression in E. coli” value is “not soluble”.

For the sequence “MSISSDWIVPDWPAPPSVRALSTTRQGGVSTGPYGLAGGLPGGLNLGRHVGDGPDAVTQNRRLLRAVLPAEPAWMEQVHGTVVADLDQPLPAPVVADAAIAASPGRVCVVMTADCLPVLLCDARGVTVGAAHAGWRGLCSGVIEQTVERMTDALRACGQEADPTWLAWLGPAIGPDCFEVGAEVRQAFIDAARPDELPATRAAFAEGAADGKFLADLYALARLRLARAGCRDVHGGGLCTMTDAERFYSYRRDRTTGRMATLIWRAA”, the “soluble on expression in E. coli” value is “soluble”.

With “MSLNKAVLHDHLDGGLRAKTAKELAIKDSYKPLIEIEDIESFFNRESSTSLEDYLEAFVHTTALMSNYDNLERIAFEAAEDMMHFCGITLYESRYAPLYSVNNNLLIKDVLHAINSGFKQAENMYGIKSGLILCGMRNDKDNVSQVSEIAIDFKDQIIGFDIAMGPEYNFLPSLFADEFNKLKNNGINLTIHAGEGDGVNSIQDALDNGAKRIGHGVRIIEDIDTSSKKLGKTAEYVRNKQVPLMEVCITSNIHTNMYEEYNKHPIKDLIDLEFNVSINTDNRLMSNTSMKKEIDIAKNLGINNIDRILENSASYSFLNDFEGHHHHHH”, the “soluble on expression in E. coli” value was “soluble”.

“MSLRYIVVGASAAGISGAKTLRELDKDAEIILVSKDENVYSRCILHHYISGHRDIEALDFTDRDFFEKYNIEWKKGLEVKAIDDREHVIVLSNGESLKYDKILLATGASAFIPPVENLREAKNVVGLRNLEDAIKIKEEAEKVKNVVVLGAGLVGIDAIAGLAFKDLNVTLVEMGDRVLPIQLDKYASSKYEKRFEDAGVKLKLGVRAEKVLIDENKNPKALLINTGEEIPCELIIVATGVRSNVAFLKDSSIETDRFGLIINEKGETNARDVYGAGDITGRNPIWPTAVKEGIIAANNMVGNEIFMEDFFGSKNTMNFLGLTTMSLGVVNAPDDSYTEEIDISGENYKKIIHKDGKIYGAIIQGDLSYAGVLTQLIKEKIHVSKVKKPLFEIDYADFFNIKENLEYTYEGHHHHHH”: the “soluble on expression in E. coli” value was “soluble”.

Regarding “LLFLSRERGPSQSTPSLISSAAPTMIKMEVNGHGKAMALGEGPPLPAGVQVPAGPQTVMGPGLAPMLAPPPRRTPKQHNCQSCGKTFSSASALQIHERTHTGEKPFGCTICGRAFTTKGNLKVHMGTHMWNNAPARRG”, the “soluble on expression in E. coli” value is listed as “soluble”.

As to “SASMAGPDHLFNLRNHFYLGAYQAAINNSEIPNLSQEDIVERDCLVHRAYIALGSYQLVISEIDEAAATPLQAVKLLAMYLSSPENKESTISSLREWLADPTVGNNAIIRLIAGTIFMHEEDYNEALKHTHSGGTMDLHALNVQIFIKMHRSDFAEKQLRVMQQIDEDHTLTQLASAWLNLAVGGSKIQEAYLIFQDFSEKYPMTSLILNGKAVCCMHMGNFEEAETLLLEALNKDAKDPETLANLVVCSLHVGKSSSRYLNQLKLSHPEHVLVKRAASAEDNFERALQSFA”, the “soluble on expression in E. coli” value is on record as “soluble”.
